Measurements reported in paper PMC2906322.

Target: RhoGDIα S34D (phosphomimetic), bacterially expressed, hexahistidine-tagged (human) (UniProt P52565)
Assay: pull-down

Chain of UniProt P52565 (P52565 whole entry S34D): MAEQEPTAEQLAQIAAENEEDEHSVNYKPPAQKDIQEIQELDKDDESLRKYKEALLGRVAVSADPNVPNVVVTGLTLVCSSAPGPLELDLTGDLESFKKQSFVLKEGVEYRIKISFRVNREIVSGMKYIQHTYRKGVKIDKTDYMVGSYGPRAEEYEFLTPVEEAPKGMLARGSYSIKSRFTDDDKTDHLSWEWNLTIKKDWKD

“RhoA, endogenous in rat embryo fibroblasts (from UniProt P61589 1-193) (natural protein)” was tested. Which reduction of binding against wild-type RhoGDIα did it give?
Its reduction of binding against wild-type RhoGDIα is 75%.
